Patent US20240239894A1, “THERAPEUTIC BINDING MOLECULES” (MedImmune Limited, priority 2020, published 2024)

T1: immobilized recombinant human B7-H4 (Homo sapiens, UniProt Q7Z7D3)
T1 sequence (Q7Z7D3 25-282): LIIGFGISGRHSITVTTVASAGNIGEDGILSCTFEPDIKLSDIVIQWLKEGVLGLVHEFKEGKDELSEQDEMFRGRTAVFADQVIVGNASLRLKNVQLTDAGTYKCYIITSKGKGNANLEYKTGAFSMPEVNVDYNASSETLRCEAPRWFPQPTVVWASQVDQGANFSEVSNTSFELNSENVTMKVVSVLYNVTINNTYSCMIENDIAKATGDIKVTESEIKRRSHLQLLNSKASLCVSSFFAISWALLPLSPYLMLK


How the values were obtained:
CTG-0992 = assay: PDX model; format: in vivo; conditions: CTG-0992, Ovarian; 0.3 mg/kg vs vehicle
From the text: (§1) Patient derived xenograft models were generated using cancer cell lines with varying levels of B7-H4 expression, as outlined in Table 16. […] “E02-GL” antibody has the CDR/VH sequences (e.g. corresponds to) of ZY0EQD-E02 (“GL” means the antibody has been germlined).

T330 = assay: PDX model; format: in vivo; conditions: T330, Breast (Triple negative); 0.3 mg/kg vs vehicle
From the text: as §1

Toxicology study = format: in vivo; conditions: male cynomolgus monkeys, N=2/dose level
Method: E02-GL-SG3249 was administered to male cynomolgus monkeys (N═2/dose level). The “E02-GL” antibody has the CDR/VH sequences (e.g. corresponds to) of ZY0EQD-E02 (“GL” means the antibody has been germlined).

[1] = system: non-transfected HEK293 cells; assay: In vitro cytotoxicity; format: cell-based
From the text: The clone E02-GL was conjugated to the cytotoxin SG3249 (providing E02-GL-SG3249), and tested for the ability to target and kill both cynomolgus B7-H4 transfected and non-transfected B7-H4 cells. For convenience, the antibody tested in this example comprised the Maia heavy chain backbone (e.g. having a cysteine insertion providing an additional site to which SG3249 can conjugate, see SEQ ID NO: 48) was used. No loss of efficacy occurs where other heavy chain backbones (e.g. lacking such cysteine insertion, for example see SEQ ID NO: 52) is used. The antibody R347 conjugated to SG3249 was used as a control.

[2] = system: B7-H4 heterogeneous HT29 tumours (1:1 expressing and non-expressing); assay: Bystander killing in vivo
From the text: B7-H4 heterogeneous tumours were generated by co-implantation of B7-H4 expressing HT29 cell lines with non-expressing HT29 cells (1:1 ratio). […] This is highly advantageous, as the inventors have found B7-H4 to be heterogeneously expressed within tumours.

HCC1569 cells = assay: Western blot DNA damage response; format: cell-based; conditions: 100 ng/ml ADC, 100 pM SG3199
Method: Following treatment of HCC1569 cells with E02-GL-SG3249, and SG3199 as a control (at 100 ng/ml and 100 pM, respectively), lysate was prepared and subjected to western blot analysis with antibodies to pATR, ATR, pChk1, Chk1, pRPA32, RPA32, pATM, ATM (all involved in ATR signalling), pChk2, ChK2, pKAP1, KAP1 (all involved in ATM signalling), pDNA-PK, DNA-PK, pH2AX, H2AX, pBRCA1, BRCA1 (all involved in DNA double strand break), pFANCD2 and GAPDH (load control). Negative controls were PBS treatment alone.

HCC1954 = assay: E02-GL MESF on cell line; format: cell-based
[3] = biological target: T1, immobilized recombinant human B7-H4; assay: DELFIA-ELISA; format: binding
Method: To assess whether conjugation of the topoisomerase 1 linker-warhead affected binding properties of the E02-INT antibody, the binding affinity of E02-INT and E02-GL-SG3932 were measured using a DELFIA-ELISA method and an SPR method. […] The kinetic rate constants (kon and koff) and equilibrium dissociation constants (KD) of E02-INT and E02-GL-SG3932 for human B7-H4 antigen was also determined by SPR, using an antibody capture method.

HT29 = assay: E02-GL MESF on cell line; format: cell-based, human; conditions: HT29, B7-H4 negative
[4] = system: B7-H4-negative non-transduced HT29; assay: Flow cytometry binding; format: cell-based, human

| Molecule | % Tumour Growth Inhibition (TGI) (CTG-0992) [%] | % Tumour Growth Inhibition (TGI) (T330) [%] | toxicities (Toxicology study) | cell killing [1] | growth suppression of heterogeneous xenografts [2] | DNA damage response signalling (ATR, ATM, double strand break markers) (HCC1569 cells) | E02-GL MESF (HCC1954) | EC50 [3] [nM] | E02-GL MESF (HT29) | cellular binding [4] |
| --- | --- | --- | --- | --- | --- | --- | --- | --- | --- | --- |
| E02-GL-SG3249: clone E02-GL (Maia heavy chain backbone) conjugated to the PBD cytotoxin SG3249 (conjugate) heavy: QVQLQQWGAGLLKPSETLSLACTVYGGSFSGYYWNWIRQPPGKGLEWIGEINHSGSTSYNPSLKSRVTISVDTSKNQFSLKLSSVTAADTAVYYCARVLYNWNVDSWGQGTLVTVSSASTKGPSVFPLAPSSKSTSGGTAALGCLVKDYFPEPVTVSWNSGALTSGVHTFPAVLQSSGLYSLSSVVTVPSSSLGTQTYICNVNHKPSNTKVDKRVEPKSCDKTHTCPPCPAPELLGGPSCVFLFPPKPKDTLMISRTPEVTCVVVDVSHEDPEVKFNWYVDGVEVHNAKTKPREEQYNSTYRVVSVLTVLHQDWLNGKEYKCKVSNKALPAPIEKTISKAKGQPREPQVYTLPPSREEMTKNQVSLTCLVKGFYPSDIAVEWESNGQPENNYKTTPPVLDSDGSFFLYSKLTVDKSRWQQGNVFSCSVMHEALHNHYTQKSLSLSPGK light: DIQMTQSPSSLSASVGDRVTITCRASQDIRNDVGWYQQKPGKAPKRLIYAASRLQSGVPSRFSGSGSGTEFTLTISSLQPEDFATYYCLQHNSYPRTFGQGTKVEIKRTVAAPSVFIFPPSDEQLKSGTASVVCLLNNFYPREAKVQWKVDNALQSGNSQESVTEQDSKDSTYSLSSTLTLSKADYEKHKVYACEVTHQGLSSPVTKSFNRGEC | 0 | 70 | No abnormal toxicities | No significant killing | pronounced | leads to double strand DNA breaks | – | – | – | – |
| E02-GL: germlined ZY0EQD-E02, VH SEQ ID NO: 45, VL SEQ ID NO: 34; antibody intermediate of E02-GL-SG3932 (antibody, V domains shown) VH: QVQLQQWGAGLLKPSETLSLACTVYGGSFSGYYWNWIRQPPGKGLEWIGEINHSGSTSYNPSLKSRVTISVDTSKNQFSLKLSSVTAADTAVYYCARVLYNWNVDSWGQGTLVTVSS VL: DIQMTQSPSSLSASVGDRVTITCRASQDIRNDVGWYQQKPGKAPKRLIYAASRLQSGVPSRFSGSGSGTEFTLTISSLQPEDFATYYCLQHNSYPRTFGQGTKVEIK | – | – | – | – | – | – | 47,173 MESF | 1.98 | 2,101 MESF | did not bind |
